Measurements: patent publication US11219221B2 (FarmHannong Co., Ltd., priority 2017, dated 2022)

B1: F359M: CyPPO17 variant (protein)
chain: MEVDVAIVGGGLSGLSVAWRLQQSAPQYSGVLLEASDRLGGNITTQGAEGFVWELGPNSFAPTPALLQLIAEVGLHSELIRGDRHLPRYIYWRGELYPLEPTRPLALATSNLLSPWGKVRAALGALGFVPPYLGSGDESVNSFFRRHLGQEVAERLVAPFVSGVYAGDPQQLSAAAAFRRIAQLEKLGGGLIAGALRLRRQQPPKPRPPAEVQMRPGELGSFKEGLAALPRAIAQQLKAPVHLQTPVEAITPEPNGGYLLRSGEQTWQARSVVLATPAYQTAALVAPFQPAIARVLAAIPYPTVACVVLAYPAGLGRSVRPGFGVLIPRGQGIRTLGTIWSSCLFPQRTPAGWQVFTSMIGGATDPDLASLREEAIVQQVQQDLTRLLDLPAAKARLLGMKVWRRAIPQYLVGYPQQWQQVTHALSQTPGLFLCSNYAEGVALGDRVEHGNRTAAAVAAYLSGGQS
modifications: Synthetic (Protoporphyrinogen IX oxidase (CyPPO17) of Thermosynechococcus sp. NK55a)
notes: CyPPO17 variant
B2: F359T: CyPPO17 variant (protein)
chain: MEVDVAIVGGGLSGLSVAWRLQQSAPQYSGVLLEASDRLGGNITTQGAEGFVWELGPNSFAPTPALLQLIAEVGLHSELIRGDRHLPRYIYWRGELYPLEPTRPLALATSNLLSPWGKVRAALGALGFVPPYLGSGDESVNSFFRRHLGQEVAERLVAPFVSGVYAGDPQQLSAAAAFRRIAQLEKLGGGLIAGALRLRRQQPPKPRPPAEVQMRPGELGSFKEGLAALPRAIAQQLKAPVHLQTPVEAITPEPNGGYLLRSGEQTWQARSVVLATPAYQTAALVAPFQPAIARVLAAIPYPTVACVVLAYPAGLGRSVRPGFGVLIPRGQGIRTLGTIWSSCLFPQRTPAGWQVFTSTIGGATDPDLASLREEAIVQQVQQDLTRLLDLPAAKARLLGMKVWRRAIPQYLVGYPQQWQQVTHALSQTPGLFLCSNYAEGVALGDRVEHGNRTAAAVAAYLSGGQS
modifications: Synthetic (Protoporphyrinogen IX oxidase (CyPPO17) of Thermosynechococcus sp. NK55a)
notes: CyPPO17 variant
B3: F359I: CyPPO17 variant (protein)
chain: MEVDVAIVGGGLSGLSVAWRLQQSAPQYSGVLLEASDRLGGNITTQGAEGFVWELGPNSFAPTPALLQLIAEVGLHSELIRGDRHLPRYIYWRGELYPLEPTRPLALATSNLLSPWGKVRAALGALGFVPPYLGSGDESVNSFFRRHLGQEVAERLVAPFVSGVYAGDPQQLSAAAAFRRIAQLEKLGGGLIAGALRLRRQQPPKPRPPAEVQMRPGELGSFKEGLAALPRAIAQQLKAPVHLQTPVEAITPEPNGGYLLRSGEQTWQARSVVLATPAYQTAALVAPFQPAIARVLAAIPYPTVACVVLAYPAGLGRSVRPGFGVLIPRGQGIRTLGTIWSSCLFPQRTPAGWQVFTSIIGGATDPDLASLREEAIVQQVQQDLTRLLDLPAAKARLLGMKVWRRAIPQYLVGYPQQWQQVTHALSQTPGLFLCSNYAEGVALGDRVEHGNRTAAAVAAYLSGGQS
modifications: Synthetic (Protoporphyrinogen IX oxidase (CyPPO17) of Thermosynechococcus sp. NK55a)
notes: CyPPO17 variant
B4: R88A: CyPPO17 variant (protein)
chain: MEVDVAIVGGGLSGLSVAWRLQQSAPQYSGVLLEASDRLGGNITTQGAEGFVWELGPNSFAPTPALLQLIAEVGLHSELIRGDRHLPAYIYWRGELYPLEPTRPLALATSNLLSPWGKVRAALGALGFVPPYLGSGDESVNSFFRRHLGQEVAERLVAPFVSGVYAGDPQQLSAAAAFRRIAQLEKLGGGLIAGALRLRRQQPPKPRPPAEVQMRPGELGSFKEGLAALPRAIAQQLKAPVHLQTPVEAITPEPNGGYLLRSGEQTWQARSVVLATPAYQTAALVAPFQPAIARVLAAIPYPTVACVVLAYPAGLGRSVRPGFGVLIPRGQGIRTLGTIWSSCLFPQRTPAGWQVFTSFIGGATDPDLASLREEAIVQQVQQDLTRLLDLPAAKARLLGMKVWRRAIPQYLVGYPQQWQQVTHALSQTPGLFLCSNYAEGVALGDRVEHGNRTAAAVAAYLSGGQS
modifications: Synthetic (Protoporphyrinogen IX oxidase (CyPPO17) of Thermosynechococcus sp. NK55a)
notes: CyPPO17 variant
B5: F160A: CyPPO17 variant (protein)
chain: MEVDVAIVGGGLSGLSVAWRLQQSAPQYSGVLLEASDRLGGNITTQGAEGFVWELGPNSFAPTPALLQLIAEVGLHSELIRGDRHLPRYIYWRGELYPLEPTRPLALATSNLLSPWGKVRAALGALGFVPPYLGSGDESVNSFFRRHLGQEVAERLVAPAVSGVYAGDPQQLSAAAAFRRIAQLEKLGGGLIAGALRLRRQQPPKPRPPAEVQMRPGELGSFKEGLAALPRAIAQQLKAPVHLQTPVEAITPEPNGGYLLRSGEQTWQARSVVLATPAYQTAALVAPFQPAIARVLAAIPYPTVACVVLAYPAGLGRSVRPGFGVLIPRGQGIRTLGTIWSSCLFPQRTPAGWQVFTSFIGGATDPDLASLREEAIVQQVQQDLTRLLDLPAAKARLLGMKVWRRAIPQYLVGYPQQWQQVTHALSQTPGLFLCSNYAEGVALGDRVEHGNRTAAAVAAYLSGGQS
modifications: Synthetic (Protoporphyrinogen IX oxidase (CyPPO17) of Thermosynechococcus sp. NK55a)
notes: CyPPO17 variant

Tested on: CyPPO17
Experiment: PPO enzyme activity of MBP-fused CyPPO17 wild type and variants
Type: biochemical, Thermosynechococcus sp. NK55a
Details: PPO enzyme activity relative to wild type; MBP-fused protein, 50 μM protoporphyrinogen IX, room temperature, 30 min
Method: Thus, PPO proteins of wild type and variants were expressed as fused to MBP and were used for experiments.
The following process for purification of PPO protein was performed in a 4° C. cold room. Amylose resin (NEB) was packed to 1.5×15 cm column (Bio-Rad, Econo Columns 1.5×15 cm, glass chromatography column, max. vol), and the obtained protein extracts were loaded to the column at a flow rate of 0.2 ml/min. The column was washed with 3 column volumes of buffer and the presence of protein in the washing solution was examined. When the protein was no longer detected, the washing procedure was terminated. Then, the MBP-PPO protein was eluted with approximately 2 column volumes of buffer containing 20 mM maltose. The protein concentration of each eluent was determined and the elution was stopped when the protein was no longer detected. Ten microliter of each fraction was investigated for protein quantification and SDS-PAGE analysis. The highly pure fractions of PPO protein variants were used for the enzyme assay.
Since protoporphyrinogen IX, a substrate of PPO protein, was not commercially available, it was chemically synthesized in the laboratory. Overall process was performed in dark under nitrogen stream. […] of protoporphyrin IX was dissolved in 20 ml of 20% (v/v) EtOH, and stirred under dark condition for 30 minutes. The obtained protoporphyrin IX solution was put into a 15 ml screw tube in an amount of 800 μl, and flushed with nitrogen gas for 5 minutes. To this, 1.5 g of sodium amalgam was added and vigorously shaken for 2 minutes. The lid was opened to exhaust hydrogen gas in the tube. Thereafter, the lid was closed and incubated for 3 minutes. The protoporphyrinogen IX solution was filtered using syringe and cellulose membrane filter. […] To determine the enzyme activity of PPO protein, a reaction mixture was prepared with the following composition (based on 10 ml): 50 mM Tris-Cl (pH 8.0); 50 mM NaCl; 0.04% (v/v) Tween 20; 40 mM glucose (0.072 g); 5 units glucose oxidase (16.6 mg); and 10 units catalase (1 μl).
Hundred and eighty microliters of a reaction mixture containing the purified PPO protein were placed in 96 well plates and 20 μl of […] were added. […] The reaction proceeded at room temperature for 30 min and the fluorescence of protoporphyrin IX was measured using Microplate reader (Sense, Hidex) (excitation: 405 nm; emission: 633 nm). […] To this, 2.7 N HCl was added, and the absorbance at 408 nm was measured. A standard curve was generated using standard protoporphyrin IX, and PPO activity was measured by calibration of protoporphyrin IX using the standard curve of protoporphyrin IX.
Activities of variants were presented relatively compared to that of wild type.

Row | Molecule | Activity (%)
1 | B1 | 90
2 | B2 | 56
3 | B3 | 92
4 | B4 | 70
5 | B5 | 63
